target: T1, human PD-1 expressed on cells (CHO TREX human PD1 cell line, full-length human PD-1 sequence) (human, UniProt Q15116 21-288); assay: worded summary of the screens
T1 construct: Also used for human PD-1 on Jurkat reporter cells, on PathHunter cells and on PHA-stimulated human CD4+ T cells; also called CHO human PD1 cells; CHO human PD-1 cells
T1 sequence (Q15116 21-288): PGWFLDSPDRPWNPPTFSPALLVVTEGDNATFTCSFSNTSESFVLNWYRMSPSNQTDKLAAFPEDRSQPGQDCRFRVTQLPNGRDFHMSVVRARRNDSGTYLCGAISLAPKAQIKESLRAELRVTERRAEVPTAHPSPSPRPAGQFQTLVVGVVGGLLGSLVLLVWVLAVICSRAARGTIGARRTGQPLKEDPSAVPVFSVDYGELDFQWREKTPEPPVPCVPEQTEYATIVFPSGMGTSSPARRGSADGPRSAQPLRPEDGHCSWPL

| Binder | binding result |
| --- | --- |
| 1.24b (VHH) VHH: QVTLKESGGGLVKPGGSLRLSCAASGFTFSDYDMYWIRQAPGKGLEWVSYISRGGSVTYYADSVKGRFTISRDNAKNALYLQMNSLRAEDMAVYFCATEAPLRLGETPHAAFDIWGQGTMVTVSS | binds |
| 1.28b (VHH) VHH: QITLKESGGGLVKPGGSLRLSCAASGFTFSDYDMYWIRQAPGKGLEWVSYISRGGSVTYYADSVKGRFTISRDNAKNALYLQMNSLRAEDMAVYFCATEAPLRLGETPHAAFDIWGQGTMVTVSS | binds |
| 1.15b (VHH) VHH: QVQLVESGGGLVKPGGSLRLSCAASGFTFSDNSMSWIRQAPGKGLEWVSYISSSGSTIYYADSVKGRFTISRDNAKNSLYLQMNTLRAEDTAVYYCAKEAPLRLGESPHDAFDIWGQGTMVTVSS | binds |
| 1.102a (VHH) VHH: EVQLVESGGGVVRPGGSLRLSCAASGFTFDDYAMSWVRQAPGKGLEWVSGITWNGGSTGYADSVKDRFTISRDNAKNSLYLQMNSLRAEDTALYYCVRDKYSYAWSYDVFDIWGQGTMVTVSS | binds |
| 1.94a (VHH) VHH: EVQLVESGGGVVRPGGSLRLSCAASGFTFDDYAMSWVRQAPGKGLEWVSGITWTGGSTGYADSVKDRFTISRDNAKNSLYLQMNSLRAEDTALYYCVRDKYSYAWSYDGFDIWGQGTMVTVSS | binds |
| 1.95a (VHH) VHH: EVQLVESGGGVVRPGGSLRLSCAASGFTFDDYAMSWVRQAPGKGLEWVSGITWSGGSTGYADSVKDRFTISRDNAKNSLYLQMNSLRAEDTALYYCVRDKYSYAWSYDGFDIWGQGTMVTVSS | binds |
| 1.100a (VHH) VHH: EVQLVESGGGVVRPGGSLRLSCAASGFTFDDYAMSWVRQAPGKGLEWVSGITWKGGSTGYADSVKDRFTISRDNAKNSLYLQMNSLRAEDTALYYCVRDKYSYAWSYDGFDIWGQGTMVTVSS | binds |
| 1.96a (VHH) VHH: EVQLVESGGGVVRPGGSLRLSCAASGFTFDDYAMSWVRQAPGKGLEWVSGITWPGGSTGYADSVKDRFTISRDNAKNSLYLQMNSLRAEDTALYYCVRDKYSYAWSYDGFDIWGQGTMVTVSS | binds |
| 1.99a (VHH) VHH: EVQLVESGGGVVRPGGSLRLSCAASGFTFDDYAMSWVRQAPGKGLEWVSGITWNGGSTGYADSVKGRFTISRDNAKNSLYLQMNSLRAEDTALYYCVRDKYSYAWSYDGFDIWGQGTMVTVSS | binds |
| 1.101a (VHH) VHH: EVQLVESGGGVVRPGGSLRLSCAASGFTFDDYAMSWVRQAPGKGLEWVSGITWRGGSTGYADSVKDRFTISRDNAKNSLYLQMNSLRAEDTALYYCVRDKYSYAWSYDGFDIWGQGTMVTVSS | binds |
| 1.98a (VHH) VHH: EVQLVESGGGVVRPGGSLRLSCAASGFTFDDYAMSWVRQAPGKGLEWVSGITWLGGSTGYADSVKDRFTISRDNAKNSLYLQMNSLRAEDTALYYCVRDKYSYAWSYDGFDIWGQGTMVTVSS | binds |
| 1.25b (VHH) VHH: QVTLKESGGGLVKPGGSLRLSCAASGFTFSDYYMSWFRQAPGKEREWISFISSSGSTTYYADSVKGRFTISRDNAKNSLYLQMNSLRAEDTAVYYCAREAPLRLGESPHDAFDFWGQGTMVTVSS | binds |
| 1.57a (VHH) VHH: QVQLVESGGGVVRPGGSLRLSCAASGFTFDDYGMSWVRQAPGKGLEWVSGISRNGGSTGYTASVKDRFTISRDNAKNSLYLQMNSLRADDTAMYYCAREKYSSGWSYDDFDIWGQGTMVTVSS | binds |
| 1.53a (VHH) VHH: QVQLVESGGGVVRPGGSLRLSCAASGFTFDDYGMSWVRQSPGKGLEWVSGISRNGGSAGYSDSAKDRFTISRDNAKNSLYLQMNSLRADDTAMYYCAREKYSSGWSYDDFDIWGQGTMVTVSS | binds |

The next lines start with the values.

| binding result | Binder |
| --- | --- |
| binds | 1.33b (VHH) VHH: QITLKESGGGLVKPGGSLRLSCAASGFTFSDYDMYWVRQAPGKGLEWVSYISRGGSVTYYADSVKGRFTISRDNAKNALYLQMNSLRAEDMAVYFCATEAPLRLGETPHAAFDIWGQGTMVTVSS |
| binds | 1.12b (VHH) VHH: EVQLLESGGGVVKPGGSLRLSCAASGFTFSDYYMGWIRQAPGKGLEWISYISSSGSTIYYADSVKGRFTISRDNAKNSLYLQMNSLRAEDTAVYYCAREAPLRLGESPHDAFDIWGQGTMVTVSS |
| binds | 1.26b (VHH) VHH: QVTLKESGGGLVKPGGSLRLSCAASGFTFSDNSMSWIRQAPGKGLEWVSYISSSGSTIYYADSVKGRFTISRDNAKNSLYLQMNTLRAEDTAVYYCAKEAPLRLGESPHDAFDIWGQGTMVTVSS |
| binds | 1.56a (VHH) VHH: QVQLVESGGGVVRLGGSLRLSCAASGFSFVDYGMSWVRQAPGQGLEWVSGISRNGGSTGYADSVKDRFTISRDNAKNTLYLQMNSLRAEDTALYYCARDPYSSGWSYDSFDIWGQGTMVTVSS |
| binds | 1.93a (VHH) VHH: EVQLVESGGGVVRPGGSLRLSCAASGFTFDDYAVSWVRQAPGKGLEWVSGITWNGGSTGYADSVKDRFTISRDNAKNSLYLQMNSLRAEDTALYYCVRDKYSYAWSYDGFDIWGQGTMVTVSS |
| binds | 1.97a (VHH) VHH: EVQLVESGGGVVRPGGSLRLSCAASGFTFDDYAMSWVRQAPGKGLEWVSGITWIGGSTGYADSVKDRFTISRDNAKNSLYLQMNSLRAEDTALYYCVRDKYSYAWSYDGFDIWGQGTMVTVSS |
| binds | 1.52a (VHH) VHH: EVQLLESGGGVVRPGGSLRLSCAASGFTFDDYGMSWVRQPPGKGLEWVSGISRNGGSAGYSDSAKDRFTISRDNAKNSLYLQMNSLRADDTAMYYCAREKYSSGWSYDDFDIWGQGTMVTVSS |
| binds | 1.54a (VHH) VHH: QVQLVESGGGVVRPGGSLRLSCAASGFTFDDYGMSWVRQPPGKGLEWVSGISRNGGSAGYSDSAKDRFTISRDNAKNSLYLQMNSLRADDTAMYYCAREKYSSGWSYDDFDIWGQGTMVTVSS |
| binds | 1.55a (VHH) VHH: EVQLVESGGGVVRPGGSLRLSCAASGFTFDDYGMSWVRQPPGKGLEWVSGISRNGGSAGYSDSAKDRFTISRDNAKNSLYLQMNSLRADDTAMYYCAREKYSSGWSYDDFDIWGQGTMVTVSS |
| binds | 1.40b (VHH) VHH: EVQLVESGGGLVKPGGSLRLSCAASGFTFSDSSMSWIRQAPGRGLEWISYISSGGGIIYYTDSVKGRFTISRDNAKNSLYLQMNSLRVEDTAVYYCAKEAPLRLGESPHDAFDIWGHGTMVTVSS |

target: T1, human PD-1 expressed on cells (CHO TREX …); assay: cell-based or functional assay

| Binder | EC50 (M), NFAT-Luciferase reporter gene assay [M] |
| --- | --- |
| 1.92b-4GS-1.103a (other) EVQLVESGGGLVKPGGSLRLSCAASGFTFSDESMTWMRQAPGKGLEWVSYISSGGGVKFYADSVKGRFTISRDNAKNSLYLQMNSLRAEDTAVYYCAREAPLRLGESPHDAFDISGQGTMVTVSSGGGGSGGGGSGGGGSGGGGSEVQLVESGGGVVRPGGSLRLSCAASGFTFDDYAMSWVRQAPGKGLEWVSGITWNGGSTGYADSVKDRFTISRDNAKNSLYLQMNSLRAEDTALYYCVRDKYSYAWSYDDFDIWGQGTMVTVSS | 1.2e-09 |
| 1.77b-2GS-1.21a (other) EVQLVESGGGLVKPGGSLRLSCAASGFTFSDSSMTWMRQAPGKGLEWVSYISSGGGVKFYTDSVKGRFTISRDNAKNSLYLQMNSLRAEDTAVYYCAREAPLRLGESPHDAFDISGQGTMVTVSSGGGGSGGGGSEVQLVESGGGLVQPGRSLRLSCAASGFTFDDYAMHWVRQAPGKDLEWVSGISWNGGSMGYAASVKGRFTISRDNAKNSLYLQMNSLRAEDTALYYCVREKGPGLTGSTADYYGLDVWGQGTMVTVSS | 2.1e-09 |

Next, values leading:

| EC50 (M), NFAT-Luciferase reporter gene assay [M] | Binder |
| --- | --- |
| 3e-09 | 1.64b-4GS-1.1a (other) EVQLVESGGGLVKPGGSLRLSCAASGFTFSDSSMTWMRQAPGKGLEWVSYISSGGGVKFYADSVKGRFTISRDNAKNSLYLQMNSLRADDTAVYYCAREAPLRLGESPHDAFDISGQGTMVTVSSGGGGSGGGGSGGGGSGGGGSEVQLLESGGGSVQPGRSLRLSCAASGFTFDDHAMHWVRQAPGKGLEWVSGISWNSGSMGYADSVKDRFTISRDNAKSSLYLQMNSLRAEDTALYYCVREKGPGLTGSTADYYGLDVWGQGTMVTVSS |
| 1e-09 | 1.92b-4GS-1.99a (other) EVQLVESGGGLVKPGGSLRLSCAASGFTFSDESMTWMRQAPGKGLEWVSYISSGGGVKFYADSVKGRFTISRDNAKNSLYLQMNSLRAEDTAVYYCAREAPLRLGESPHDAFDISGQGTMVTVSSGGGGSGGGGSGGGGSGGGGSEVQLVESGGGVVRPGGSLRLSCAASGFTFDDYAMSWVRQAPGKGLEWVSGITWNGGSTGYADSVKGRFTISRDNAKNSLYLQMNSLRAEDTALYYCVRDKYSYAWSYDGFDIWGQGTMVTVSS |
